Consider one molecule from paper PMC7933334, “The methyltransferase SETD2 couples transcription and splicing by engaging mRNA processing factors through its SHI domain” (Nature Communications, 2021).

The target of the test is T1, GST-His-hnRNP L RRM2 (162–321) (human, UniProt P14866 162-321).
T1 construct: bait of the GST pull-down; source: E. coli Rosetta 2 (DE3) pLysS, purified (glutathione magnetic beads)
T1 sequence (looked up): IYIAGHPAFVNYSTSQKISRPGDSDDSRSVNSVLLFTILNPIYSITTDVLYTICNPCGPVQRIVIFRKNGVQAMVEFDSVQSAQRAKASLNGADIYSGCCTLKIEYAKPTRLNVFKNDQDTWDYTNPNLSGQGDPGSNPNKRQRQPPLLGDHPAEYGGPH
Description: pull-down; GST pull-down with recombinant proteins purified from bacteria; GST-His-hnRNP L segments as baits, FLAG-SETD2 fragments as preys; RNase included in the binding assay; western blot with anti-His and anti-FLAG. The note with it: both partners purified. On the technique in general: In western blotting, separated proteins are transferred to a membrane and probed.

B1: FLAG-SETD2 SHI (2114–2263) (domain or fragment, human, UniProt Q9BYW2 2114-2263, looked up)
chain: NKLSTEERRKLFEQEVAQREAQKQQQQMQNLGMTSPLPYDSLGYNAPHHPFAGYPPGYPMQAYVDPSNPNAGKVLLPTPSMDPVCSPAPYDHAQPLVGHSTEPLSAPPPVPVVPHVAAPVEVSSSQYVAQSDGVVHQDSSVAVLPVPAPG
notes: The methods say that proteins were eluted with either glutathione or AcTEV protease; source: E. coli Rosetta 2 (DE3) pLysS, purified (glutathione magnetic beads)
With B1, the binding result was “binds”.
